In paper PMC9933633:

Biological target: SARS-CoV-2 Spike RBD (SARS-CoV-2, UniProt P0DTC2 319-541)
Experiment: electrochemical aptasensor

B1: Spike RBD aptamer (51-base, Song et al. 2020) (structured_DNA)
DNA: CAGCACCGACCTTGTGCTTTGGGAGTGCTGGTCCAAGGGCGTTAATGGACA
modifications: 5' C6-NH2
binding result: binds
